Measured values as given in patent US20210380703A1 (RIGEL PHARMACEUTICALS, published 2021).

B1: 374_A10 (antibody, V domains shown)
VH: EVQLLESGGGLVQPGGSLRLSCAASGFTFSSYGMHWVRQAPGKGLEWVSGINYNGGYTSYADSVKGRFTISRDNSKNTLYLQMNSLRAEDTAVYYCARAATWHDTHLDYWGQGTLVTVSS
VL: DIQMTQSPSSLSASVGDRVTITCRASQSILSYVNWYQQKPGKAPKLLIYAATSRASGVPSRFSGSGSGTDFTLTISSLQPEDFATYYCQQSYDTPLTFGGGTKVEIK
notes: Group II
B2: 368_C02 (antibody, V domains shown)
VH: EVQLLESGGGLVQPGGSLRLSCAASGFTFDDYSMNWVRQAPGKGLEWVANINYNGGYKGYADSVKGRFTISRDNSKNTLYLQMNSLRAEDTAVYYCARGANWHDTHLDYWGQGTLVTVSS
VL: DIQMTQSPSSLSASVGDRVTITCRASQSISTYVNWYQQKPGKAPKLLIYAATSLASGVPSRFSGSGSGTDFTLTISSLQPEDFATYYCQQSYSTPLTFGGGTKVEIK
notes: Group III
B3: 365_B04 (antibody, V domains shown)
VH: EVQLLESGGGLVQPGGSLRLSCAASGFTFSSYGMHWVRQAPGKGLEWVASINYNSGYTSYADSVKGRFTISRDNSKNTLYLQMNSLRAEDTAVYYCARAANWHDTALDYWGQGTLVTVSS
VL: DIQMTQSPSSLSASVGDRVTITCRASQSILTYLNWYQQKPGKAPKLLIYAATSRHSGVPSRFSGSGSGTDFTLTISSLQPEDFATYYCQQSDESPLTFGGGTKVEIK
notes: Group I
B4: 376_E11 (antibody, V domains shown)
VH: EVQLLESGGGLVQPGGSLRLSCAASGFTFSSYSMNWVRQAPGKGLEWVSGINYNGGYTSYADSVKGRFTISRDNSKNTLYLQMNSLRAEDTAVYYCARGANWHDTALDYWGQGTLVTVSS
VL: DIQMTQSPSSLSASVGDRVTITCRASQSILTYVNWYQQKPGKAPKLVIYAATSRASGVPSRFSGSGSGTDFTLTISSLQPEDFATYYCQQSYELPLTFGGGTKVEIK
notes: Group III
B5: 365_C06 (antibody, V domains shown)
VH: EVQLLESGGGLVQPGGSLRLSCAASGFTFSDYGMHWVRQAPGKGLEWVSGINYNGGYTSYADSVKGRFTISRDNSKNTLYLQMNSLRAEDTAVYYCARAANWHDTALDYWGQGTLVTVSS
VL: DIQMTQSPSSLSASVGDRVTITCRASQSISTYVNWYQQKPGKAPKLLIYAVTSLASGVPSRFSGSGSGTDFTLTISSLQPEDFATYYCQQSYDNPLTFGGGTKVEIK
notes: Group I
B6: 365_D03 (antibody, V domains shown)
VH: EVQLLESGGGLVQPGGSLRLSCAASGFTFDDYSMHWVRQAPGKGLEWVASINYNGGYKSYADSVKGRFTISRDNSKNTLYLQMNSLRAEDTAVYYCARAATWHDTHLDYWGQGTLVTVSS
VL: DIQMTQSPSSLSASVGDRVTITCRASQSIVSYLNWYQQKPGKAPKLVIYAATSRASGVPSRFSGSGSGTDFTLTISSLQPEDFATYYCQQSYDSPLTFGGGTKVEIK
notes: Group II
B7: 365_D04 (antibody, V domains shown)
VH: EVQLLESGGGLVQPGGSLRLSCAASGFTFSDYGMHWVRQAPGKGLEWVAGINYNGGYKSYADSVKGRFTISRDNSKNTLYLQMNSLRAEDTAVYYCARAANWHDTALDYWGQGTLVTVSS
VL: DIQMTQSPSSLSASVGDRVTITCRASQSISSYLNWYQQKPGKAPKLVIYAVTSRASGVPSRFSGSGSGTDFTLTISSLQPEDFATYYCQQSYDLPLTFGGGTKVEIK
notes: Group I
B8: 365_E04 (antibody, V domains shown)
VH: EVQLLESGGGLVQPGGSLRLSCAASGFTFDSYGMHWVRQAPGKGLEWVASINYNGGYKSYADSVKGRFTISRDNSKNTLYLQMNSLRAEDTAVYYCARAANWHDTALDYWGQGTLVTVSS
VL: DIQMTQSPSSLSASVGDRVTITCRASQSILSYVNWYQQKPGKAPKLLIYAATSLASGVPSRFSGSGSGTDFTLTISSLQPEDFATYYCQQSYELPLTFGGGTKVEIK
notes: Group I
B9: 365_D08 (antibody, V domains shown)
VH: EVQLLESGGGLVQPGGSLRLSCAASGFTFDSYSMHWVRQAPGKGLEWVSSINYNGGYTSYADSVKGRFTISRDNSKNTLYLQMNSLRAEDTAVYYCARAATWHDTHLDYWGQGTLVTVSS
VL: DIQMTQSPSSLSASVGDRVTITCRASQSIITYVNWYQQKPGKAPKLLIYAATSRASGVPSRFSGSGSGTDFTLTISSLQPEDFATYYCQQSYDTPLTFGGGTKVEIK
notes: Group II
B10: 365_C03 (antibody, V domains shown)
VH: EVQLLESGGGLVQPGGSLRLSCAASGFTFSSYGMHWVRQAPGKGLEWVAGINYNSGYKGYADSVKGRFTISRDNSKNTLYLQMNSLRAEDTAVYYCARAANWHDTHLDYWGQGTLVTVSS
VL: DIQMTQSPSSLSASVGDRVTITCRASQSILTYVNWYQQKPGKAPKLVIYATTSLASGVPSRFSGSGSGTDFTLTISSLQPEDFATYYCQQSYNTPLTFGGGTKVEIK
notes: Group I
B11: 376_F01 (antibody, V domains shown)
VH: EVQLLESGGGLVQPGGSLRLSCAASGFTFSDYSMNWVRQAPGKGLEWVAGINYNGGYKSYADSVKGRFTISRDNSKNTLYLQMNSLRAEDTAVYYCARGANWHDTALDYWGQGTLVTVSS
VL: not shown
notes: Group III
B12: 365_E06 (antibody, V domains shown)
VH: EVQLLESGGGLVQPGGSLRLSCAASGFTFDSYGMNWVRQAPGKGLEWVSGINYNGGYTGYADSVKGRFTISRDNSKNTLYLQMNSLRAEDTAVYYCARAATWHDTHLDYWGQGTLVTVSS
VL: DIQMTQSPSSLSASVGDRVTITCRASQSILTYLNWYQQKPGKAPKLVIYAATSRASGVPSRFSGSGSGTDFTLTISSLQPEDFATYYCQQSYNTPLTFGGGTKVEIK
notes: Group II
B13: 365_B12 (antibody, V domains shown)
VH: EVQLLESGGGLVQPGGSLRLSCAASGFTFSDYGMHWVRQAPGKGLEWVSGINYNGGYTSYADSVKGRFTISRDNSKNTLYLQMNSLRAEDTAVYYCARAATWHDTHLDYWGQGTLVTVSS
VL: DIQMTQSPSSLSASVGDRVTITCRASQSISTYVNWYQQKPGKAPKLLIYAVTSLHSGVPSRFSGSGSGTDFTLTISSLQPEDFATYYCQQSYDNPLTFGGGTKVEIK
notes: Group II
B14: 369_A03 (antibody, V domains shown)
VH: EVQLLESGGGLVQPGGSLRLSCAASGFTFSSYGMNWVRQAPGKGLEWVSNINYNGGYTGYADSVKGRFTISRDNSKNTLYLQMNSLRAEDTAVYYCARSANWHDTALDYWGQGTLVTVSS
VL: DIQMTQSPSSLSASVGDRVTITCRASQSILTYLNWYQQKPGKAPKLLIYAVTSRHSGVPSRFSGSGSGTDFTLTISSLQPEDFATYYCQQGYDLPLTFGGGTKVEIK
B15: 365_F02 (antibody, V domains shown)
VH: EVQLLESGGGLVQPGGSLRLSCAASGFTFSSYSMNWVRQAPGKGLEWVSGINYNGGYKGYADSVKGRFTISRDNSKNTLYLQMNSLRAEDTAVYYCARGANWHDTHLDYWGQGTLVTVSS
VL: DIQMTQSPSSLSASVGDRVTITCRASQSILTYVNWYQQKPGKAPKLLIYAATSRHSGVPSRFSGSGSGTDFTLTISSLQPEDFATYYCQQSYDTPLTFGGGTKVEIK
notes: Group III
B16: 365_B08 (antibody, V domains shown)
VH: EVQLLESGGGLVQPGGSLRLSCAASGFTFDSYGMNWVRQAPGKGLEWVSNINYNSGYKGYADSVKGRFTISRDNSKNTLYLQMNSLRAEDTAVYYCARAATWHDTHLDYWGQGTLVTVSS
VL: DIQMTQSPSSLSASVGDRVTITCRASQSIVTYLNWYQQKPGKAPKLLIYAATSRASGVPSRFSGSGSGTDFTLTISSLQPEDFATYYCQQSYSSPLTFGGGTKVEIK
notes: Group II
B17: 365_C05 (antibody, V domains shown)
VH: EVQLLESGGGLVQPGGSLRLSCAASGFTFSDYSMNWVRQAPGKGLEWVSGINYNGGYKGYADSVKGRFTISRDNSKNTLYLQMNSLRAEDTAVYYCARGANWHDTHLDYWGQGTLVTVSS
VL: DIQMTQSPSSLSASVGDRVTITCRASQSILTYLNWYQQKPGKAPKLLIYAATSRHSGVPSRFSGSGSGTDFTLTISSLQPEDFATYYCQQSYNSPLTFGGGTKVEIK
notes: Group III
B18: 365_A05 (antibody, V domains shown)
VH: EVQLLESGGGLVQPGGSLRLSCAASGFTFSSYGMHWVRQAPGKGLEWVSSINYNGGYTSYADSVKGRFTISRDNSKNTLYLQMNSLRAEDTAVYYCARAATWHDTHLDYWGQGTLVTVSS
VL: not shown
notes: Group II
B19: 365_E12 (antibody, V domains shown)
VH: EVQLLESGGGLVQPGGSLRLSCAASGFTFSDYGMNWVRQAPGKGLEWVSNINYNGGYTGYADSVKGRFTISRDNSKNTLYLQMNSLRAEDTAVYYCARGANWHDTALDYWGQGTLVTVSS
VL: DIQMTQSPSSLSASVGDRVTITCRASQSILTYLNWYQQKPGKAPKLLIYAATSRASGVPSRFSGSGSGTDFTLTISSLQPEDFATYYCQQSYETPLTFGGGTKVEIK
notes: Group III

Tests used:
mouse ACVR2A [1] = molecular target: mouse ACVR2A (mouse, UniProt P27038 20-135, limits assumed); assay: ELISA
In short: (§1)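 Binding signal was read by ELISA after ACVR2A-specific monoclonal antibodies were tested against human ACVR2A and mouse ACVR2A, with human Fc as the negative control.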
Target sequence in this assay (P27038 20-135 limits assumed): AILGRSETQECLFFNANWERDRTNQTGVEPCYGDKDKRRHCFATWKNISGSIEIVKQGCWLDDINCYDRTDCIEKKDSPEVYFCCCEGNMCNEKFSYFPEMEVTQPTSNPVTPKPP

human ACVR2A [2] = molecular target: T1, human ACVR2A (human, UniProt P27037 20-135, limits assumed); assay: ELISA
T1 construct: also called activin receptor, type II A
In short: as §1
T1 sequence (P27037 20-135 limits assumed): as the sequence (P27038 20-135 limits assumed) above, with R20K, I73V counted along it

[3] = molecular target: T2, biotinylated goat anti-human kappa light chain; assay: ELISA, positive control
T2 construct: positive control of the ELISA
In short: as §1

mouse ACVR2A [4] = molecular target: T3, mouse ACVR2A (mouse, UniProt P27038 20-135, limits assumed); assay: ELISA
T3 construct: coated antigen of the initial ELISA
In short: as §1
T3 sequence (P27038 20-135 limits assumed): as the sequence (P27038 20-135 limits assumed) above

human ACVR2A [5] = molecular target: T4, human ACVR2A (human, UniProt P27037 20-135, limits assumed); assay: ELISA
T4 construct: coated antigen of the initial ELISA; also called activin receptor, type II A
In short: as §1
T4 sequence (P27037 20-135 limits assumed): as the sequence (P27038 20-135 limits assumed) above, with R20K, I73V counted along it

[6] = molecular target: T5, biotinylated goat anti-human kappa light chain; assay: ELISA, positive control; remark: listed apart in the source
T5 construct: positive control of the ELISA
In short: as §1

Human ACVR2A [7] = molecular target: T6, Human ACVR2A (human, UniProt P27037 20-135, limits assumed); assay: ELISA
T6 construct: also called activin receptor, type II A
T6 sequence (P27037 20-135 limits assumed): as the sequence (P27038 20-135 limits assumed) above, with R20K, I73V counted along it
In short: as §1

Goat anti-Human Kappa = molecular target: T7, Goat anti-Human Kappa; assay: ELISA, positive control
T7 construct: Positive control of the ELISA; also called biotinylated goat anti-human kappa light chain
In short: as §1
Note: test concentration or dose not given here.

| optical density (mouse ACVR2A [1]) [OD] | optical density (human ACVR2A [2]) [OD] | optical density [3] [OD] | optical density (mouse ACVR2A [4]) [OD] | optical density (human ACVR2A [5]) [OD] | optical density [6] [OD] | optical density (Human ACVR2A [7]) [OD] | optical density (Goat anti-Human Kappa) [OD] | Binder |
| --- | --- | --- | --- | --- | --- | --- | --- | --- |
| 3.59 | 3.56 | 3 |  |  |  |  |  | B1 |
|  |  |  | 1.49 | 1.38 | 3.51 |  |  | B2 |
| 2.18 | 1.99 | 3.12 |  |  |  |  |  | B3 |
|  |  |  | 3.65 | 3.68 | 3.47 |  |  | B4 |
| 2.23 | 1.78 | 3.45 |  |  |  |  |  | B5 |
| 2.48 | 2.35 | 3.53 |  |  |  |  |  | B6 |
| 2.39 | 2.27 | 3.52 |  |  |  |  |  | B7 |
| 2.4 | 2.34 | 3.54 |  |  |  |  |  | B8 |
| 2.35 | 2.26 | 3.61 |  |  |  |  |  | B9 |
| 2.65 | 2.26 | 3.5 |  |  |  |  |  | B10 |
|  |  |  | 3.02 | 2.77 | 3.18 |  |  | B11 |
| 2.06 | 1.99 | 3.29 |  |  |  |  |  | B12 |
| 2.29 | 2.33 | 3.43 |  |  |  |  |  | B13 |
|  |  |  |  |  |  | 0.451 | 3.17 | B14 |
| 3.05 | 2.78 | 3.4 |  |  |  |  |  | B15 |
| 1.26 | 1.14 | 3.04 |  |  |  |  |  | B16 |
| 2.81 | 2.56 | 3.53 |  |  |  |  |  | B17 |
| 2.23 | 2.34 | 3.45 |  |  |  |  |  | B18 |
| 3.28 | 3.32 | 3.52 |  |  |  |  |  | B19 |
